Experimental data as given in patent US20170022292A1 (Novartis, published 2017).

Columns and labels:
[1] = target: T1, human FXI activated (human Factor XIa, full length) (human, UniProt P03951 19-387; P03951 388-625); assay: cell-based or functional assay
human FXI zymogen [2] = target: T2, human FXI zymogen (human, UniProt P03951 19-625); assay: cell-based or functional assay
[3] = target: T1, human FXI activated (human Factor XIa, …); assay: solution equilibrium titration (SET), MSD ECL read-out, 1:2 fit, n=3; apparent KD (avidity possible)
human FXI zymogen [4] = target: T2, human FXI zymogen; assay: as above
[5] = target: T3, cynomolgus monkey FXI zymogen (cynomolgus monkey, UniProt A0A2K5VVW4 19-624); assay: solution equilibrium titration (SET); apparent KD, N=2; cynomolgus monkey FXI zymogen; apparent KD, SET, N=2
T3 construct: also called free FXI (FXIf) in cynomolgus plasma
T3 sequence (A0A2K5VVW4 entry or part of it): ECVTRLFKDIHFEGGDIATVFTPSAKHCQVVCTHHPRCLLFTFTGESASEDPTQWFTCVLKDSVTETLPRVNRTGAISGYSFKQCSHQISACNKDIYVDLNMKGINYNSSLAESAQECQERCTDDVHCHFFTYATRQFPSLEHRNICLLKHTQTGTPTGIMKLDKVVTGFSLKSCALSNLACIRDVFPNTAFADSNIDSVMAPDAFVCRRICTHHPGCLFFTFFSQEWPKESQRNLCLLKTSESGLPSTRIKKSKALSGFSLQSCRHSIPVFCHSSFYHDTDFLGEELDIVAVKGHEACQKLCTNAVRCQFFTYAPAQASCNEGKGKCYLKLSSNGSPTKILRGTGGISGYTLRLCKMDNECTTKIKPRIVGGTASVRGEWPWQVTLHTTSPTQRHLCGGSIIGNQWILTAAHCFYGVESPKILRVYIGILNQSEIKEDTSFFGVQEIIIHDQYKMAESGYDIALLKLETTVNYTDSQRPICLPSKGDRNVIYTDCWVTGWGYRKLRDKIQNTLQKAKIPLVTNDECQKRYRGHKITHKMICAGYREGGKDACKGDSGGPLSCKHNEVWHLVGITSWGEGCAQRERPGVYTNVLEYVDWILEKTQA

[6] = target: T4, activated cynomolgus monkey FXI (cynomolgus monkey, UniProt A0A2K5VVW4 19-387; A0A2K5VVW4 388-625); assay: solution equilibrium titration (SET); apparent KD, N=2; activated cynomolgus monkey FXI; apparent KD, SET, N=2
T4 construct: also called cynomolgus monkey FXIa; cynomolgus monkey FXI (active form)
T4 sequence (chain, as listed by the source, form in doubt, chain 1 of 2): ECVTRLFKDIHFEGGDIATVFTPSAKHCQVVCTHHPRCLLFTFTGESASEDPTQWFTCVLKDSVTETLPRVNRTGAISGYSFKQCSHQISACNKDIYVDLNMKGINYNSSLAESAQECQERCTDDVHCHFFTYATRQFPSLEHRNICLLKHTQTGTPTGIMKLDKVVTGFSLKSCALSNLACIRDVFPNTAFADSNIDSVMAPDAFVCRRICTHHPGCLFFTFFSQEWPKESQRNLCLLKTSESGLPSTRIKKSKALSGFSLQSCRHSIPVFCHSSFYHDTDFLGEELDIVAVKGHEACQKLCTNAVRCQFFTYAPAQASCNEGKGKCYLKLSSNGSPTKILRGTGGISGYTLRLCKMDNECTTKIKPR
T4 sequence (chain, as listed by the source, form in doubt, chain 2 of 2): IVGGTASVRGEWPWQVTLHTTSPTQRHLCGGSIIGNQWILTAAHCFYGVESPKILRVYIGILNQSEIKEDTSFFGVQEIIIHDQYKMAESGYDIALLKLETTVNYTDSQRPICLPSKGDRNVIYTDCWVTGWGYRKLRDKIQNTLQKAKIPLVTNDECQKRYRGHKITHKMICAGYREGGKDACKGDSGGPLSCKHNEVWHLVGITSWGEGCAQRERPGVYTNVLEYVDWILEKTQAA

[7] = target: T5, human FXI catalytic domain (residues 388-625, Swissprot P03951) (human, UniProt P03951 388-625); assay: SPR (BIACORE T200), IgG captured by goat anti-human IgG-Fc, FXI catalytic domain 0-200 nM as analyte, 25 C, 1:1 model, n=2
T5 construct: it is treated here as the same molecule; also called FXI CD; FXIa CD
T5 sequence (P03951 388-625 limits assumed, form in doubt, one chain of several): as the sequence (chain, as listed by the source, form in doubt, chain 2 of 2) above, with I59S, D156E, L225V, A238V counted along it

human FXI zymogen [8] = target: T2, human FXI zymogen; assay: SET
[9] = target: T1, human FXI activated (human Factor XIa, …); assay: SET KD compared with SPR KD for the FXI catalytic domain
human FXI zymogen [10] = target: T2, human FXI zymogen; assay: as above
[11] = target: T1, human FXI activated (human Factor XIa, …); assay: solution equilibrium titration (SET), MSD ECL read-out, 1:1 fit, n=3
human FXI zymogen [12] = target: T2, human FXI zymogen; assay: as above
[13] = target: T5, human FXI catalytic domain (residues …); assay: SPR (BIACORE T200), Fab amine-coupled on CM5 chip, FXI catalytic domain 0-200 nM as analyte, 25 C, 1:1 model, n=3

T2 sequence (P03951 19-625 C226S limits assumed): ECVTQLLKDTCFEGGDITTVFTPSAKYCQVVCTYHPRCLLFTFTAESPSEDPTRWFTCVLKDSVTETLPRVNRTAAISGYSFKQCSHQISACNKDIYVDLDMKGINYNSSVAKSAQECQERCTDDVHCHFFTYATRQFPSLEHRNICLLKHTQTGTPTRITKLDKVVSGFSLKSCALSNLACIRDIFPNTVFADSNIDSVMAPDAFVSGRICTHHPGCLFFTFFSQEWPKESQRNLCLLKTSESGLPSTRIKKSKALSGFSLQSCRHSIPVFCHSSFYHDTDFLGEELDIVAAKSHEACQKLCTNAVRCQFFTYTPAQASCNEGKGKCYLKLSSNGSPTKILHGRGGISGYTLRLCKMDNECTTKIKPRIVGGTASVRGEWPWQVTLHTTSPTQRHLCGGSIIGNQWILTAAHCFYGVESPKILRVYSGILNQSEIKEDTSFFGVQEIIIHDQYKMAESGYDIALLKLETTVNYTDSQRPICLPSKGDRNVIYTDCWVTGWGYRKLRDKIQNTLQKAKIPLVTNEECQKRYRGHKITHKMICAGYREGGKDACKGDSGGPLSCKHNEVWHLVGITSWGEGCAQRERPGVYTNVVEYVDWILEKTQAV
T1 sequence (P03951 19-387 C226S limits assumed, form in doubt, chain 1 of 2): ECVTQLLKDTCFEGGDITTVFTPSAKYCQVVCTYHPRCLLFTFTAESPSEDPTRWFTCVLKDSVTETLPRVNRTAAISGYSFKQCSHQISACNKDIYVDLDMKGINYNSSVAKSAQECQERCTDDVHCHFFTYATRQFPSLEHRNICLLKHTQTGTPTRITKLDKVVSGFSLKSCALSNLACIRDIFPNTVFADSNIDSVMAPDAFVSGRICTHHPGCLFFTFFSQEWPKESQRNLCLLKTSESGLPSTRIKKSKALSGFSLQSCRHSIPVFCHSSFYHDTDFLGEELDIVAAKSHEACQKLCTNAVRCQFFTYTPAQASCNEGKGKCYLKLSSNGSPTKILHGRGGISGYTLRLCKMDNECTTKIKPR
T1 sequence (P03951 388-625 limits assumed, form in doubt, chain 2 of 2): as the sequence (chain, as listed by the source, form in doubt, chain 2 of 2) above, with I59S, D156E, L225V, A238V counted along it

IC50, inhibition of the enzymatic activity of full length human FXIa (cleavage of the fluorescent peptide D-Leu-Pro-Arg*Rh110-D-Pro) [1] [nM]	IC50, inhibition of thrombin generation in the TGA with pooled human plasma (human FXI zymogen [2]) [nM]	Kd [3] [nM]	Kd (human FXI zymogen [4]) [nM]	Kd [5] [nM]	Kd [6] [nM]	Kd [7] [nM]	koff [7] [s⁻¹]	kon [7] [M⁻¹ s⁻¹]	fold higher affinity than to the activated FXI (human FXI zymogen [8]) [fold]	fold higher affinity than to the catalytic domain [9] [fold]	fold higher affinity than to the catalytic domain (human FXI zymogen [10]) [fold]	Kd [11] [nM]	Kd (human FXI zymogen [12]) [nM]	Kd [13] [nM]	koff [13] [s⁻¹]	kon [13] [M⁻¹ s⁻¹]	Binder
~0.16	24	0.0047	0.0013	0.005	0.0125	21	0.00088	42000	–	–	–	–	–	–	–	–	NOV1401 (human IgG1/lambda antibody with D265A and P329A in the Fc) (antibody, V domains shown, also called NOV1401-IgG; NOV1401-Antibody) VH: QVQLLESGGGLVQPGGSLRLSCAASGFTFSTAAMSWVRQAPGKGLEWVSGISGSGSSTYYADSVKGRFTISRDNSKNTLYLQMNSLRAEDTAVYYCARELSYLYSGYYFDYWGQGTLVTVSS VL: QSVLTQPPSASGTPGQRVTISCSGSSSNIGSNDVSWYQQLPGTAPKLLIYKNYNRPSGVPDRFSGSKSGTSASLAISGLQSEDEADYYCSAWDQRQFDVVFGGGTKLTVLG
–	–	–	–	–	–	–	–	–	5	66	300	0.305	0.062	19	0.00061	32000	NOV1401-Fab (Fab, V domains shown, also called Fab of the NOV1401 antibody; Fab portion of NOV1401) VH: QVQLLESGGGLVQPGGSLRLSCAASGFTFSTAAMSWVRQAPGKGLEWVSGISGSGSSTYYADSVKGRFTISRDNSKNTLYLQMNSLRAEDTAVYYCARELSYLYSGYYFDYWGQGTLVTVSS VL: QSVLTQPPSASGTPGQRVTISCSGSSSNIGSNDVSWYQQLPGTAPKLLIYKNYNRPSGVPDRFSGSKSGTSASLAISGLQSEDEADYYCSAWDQRQFDVVFGGGTKLTVLG
